Results published in patent US20110183342A1.

Target: HLA-B1501 (purified MHC class I molecule) (human)
Experiment: competition with a radiolabeled probe peptide for purified MHC class I

B1: Mtb8.4 5-15 peptide … (peptide)
peptide: AVINTTCNYGQ
modifications: not checked
  IC50: 10 nM
